Patent US20230381316A1 (METHODIST HOSPITAL, published 2023)

What follows are binders tested against T1, prostate-specific membrane antigen (PSMA) on PSMA-positive prostate cancer cells (LNCaP, VCaP) (human, UniProt Q04609 1-750) (assay: flow cytometry on LNCaP cells).
T1 construct: Endogenous PSMA on LNCaP and VCaP cells; also called FOLH1; PSMA antigen on cancer cell surface
T1 sequence (Q04609 whole entry): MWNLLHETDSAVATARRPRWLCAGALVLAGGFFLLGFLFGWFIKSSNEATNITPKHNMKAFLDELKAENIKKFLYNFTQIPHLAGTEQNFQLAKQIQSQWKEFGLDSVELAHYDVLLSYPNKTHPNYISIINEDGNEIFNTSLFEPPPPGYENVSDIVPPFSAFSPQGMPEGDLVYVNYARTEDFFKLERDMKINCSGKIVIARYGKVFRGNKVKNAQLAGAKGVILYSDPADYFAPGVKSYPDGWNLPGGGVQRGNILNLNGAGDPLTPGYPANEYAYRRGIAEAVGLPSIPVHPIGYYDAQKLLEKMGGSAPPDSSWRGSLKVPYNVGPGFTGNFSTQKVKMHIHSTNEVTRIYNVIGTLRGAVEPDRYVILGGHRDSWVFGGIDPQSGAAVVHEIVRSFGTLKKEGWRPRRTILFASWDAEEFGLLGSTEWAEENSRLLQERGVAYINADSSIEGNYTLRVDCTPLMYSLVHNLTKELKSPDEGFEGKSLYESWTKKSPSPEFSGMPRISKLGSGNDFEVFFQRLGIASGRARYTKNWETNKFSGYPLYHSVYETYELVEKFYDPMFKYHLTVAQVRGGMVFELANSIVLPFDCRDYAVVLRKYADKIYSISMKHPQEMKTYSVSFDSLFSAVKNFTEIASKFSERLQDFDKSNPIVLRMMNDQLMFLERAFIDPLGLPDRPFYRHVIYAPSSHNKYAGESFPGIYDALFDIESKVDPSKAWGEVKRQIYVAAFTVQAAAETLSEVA

| binding result | Binder |
| --- | --- |
| binds | anti-PSMA mouse monoclonal antibody #1377 (antibody, V domains shown, Full-length mouse IgG from a hybridoma) VH: VQLQQPGAALVRPGASVRLSCKASGYSFTYYWMNWVMQRPGQGLEWIGMIHPSDSETRLSQKFRDKATLTVDKSSSTVYMQLNSPTSDDSAVYYCARDGNFPYYALDYWGQGTSVTVSS VL: DVVLTQAPLSLPVSLGDQASISCRSSQSLEYSNGNTYLHWYLQKPGQSPELLIYTVSNRFSGVPDRFSGSGSGTDFTLKIHRVEAEDLGVYFCSQSTHVPTFGGGTKLEIKR |
| binds | anti-PSMA mouse monoclonal antibody #219 (antibody, V domains shown, Full-length mouse IgG from a hybridoma) VH: VQLQQSGPELEKPGASVKMSCKASGYSFTGYNVNWVRQNNGKSLEWIGNIDPLHGGTTYNQKFKAKATLTVDRSSSTAYLQLKNLTSEDSAVYYCARSSRFDYWGQGTTLTVSS VL: DIVMTQSHKFMSTSVGDRVNITCKASQDVGTAVAWYQQKPGQSPKLLIYWASTRHTGVPDRFTGSGSGTDFTLTISNVQSEDLADYFCHQFTSYPFTFGSGTSLEMKR |
| binds | anti-PSMA mouse monoclonal antibody #1207 (antibody, V domains shown, Full-length mouse IgG from a hybridoma) VH: VKLQQSGPGLVKPSQSLSLTCAVTGYSITSDYAWNWIRKFPGNKLEWMGYISYSGRTTYNPSLESRISITRDTSKNQFFLQLNSVTTEDTATYYCARCYYGSSSRWYGMDYWGRGTSVAVSS VL: IVLTQSPAIMSASPGVKVTMTCRASSSVDSSYLHWYQQKSGASPQVWIYSTSNLASGVPARFSGSGSGTSYSLTISSVEAEDAATYYCQQYSGYPLTFGGGTKLEIKR |
| binds | anti-PSMA mouse monoclonal antibody #1366 (antibody, V domains shown, Full-length mouse IgG from a hybridoma) VH: VKLQESGPGLVAPSQSLSITCTVSGFSLTDYGVSWIRQPPGKGLEWLGVIWSDGNTYYNSPLKSRLSINKDNSKSQVFLKMNSLQTDDSAMYYCARHKVYTMDYWGQGTSVTVSS VL: TVLTQSPAIMSASPGEKVTMTCRASSSVSSSYLHWYQQKSSASPKLWIYRTSNLASGVPARFSGSGSGTSYSLTISSLEAEDAATYYCQQYSGYPLTFGAGTKLELKR |

What follows are binders tested against T1, prostate-specific membrane antigen … (assay: flow cytometry on mixed PC3 and LNCaP cells, 20 µg antibody, FITC anti-mouse IgG).
Procedure: Next, the cells were incubated with FITC anti-mouse IgG secondary antibody (Biolegend, cat #406001), followed by flow cytometric analysis.

| binding result | Binder |
| --- | --- |
| binds | anti-PSMA mouse monoclonal antibody #1352 (antibody, IgG2b, V domains shown) VH: VKLQQSGPELEKPGASVKISCKASGYSFTGYNVNWVKQSNGKSLEWIGNIDPYHGGTTYNQKFEAKATLTVDKSSSTAYMQLKSLTSEDSAVYYCARSSRFDYWGQGTTLTVSS VL: DIVMTQSHKFMSTSVGDRVNITCKASQDVGTAVAWYQQKPGQSPKFLIYWASTRHTGVPDRFTGSGSGTDFTLTISNVQSEDLADYFCHQYTSYPFTFGSGTKLEMKR |

The binders below were run against T2, Fluorescence-labeled PSMA protein (biotin-labelled purified PSMA protein with Alexa Fluor 647 Streptavidin) (human, UniProt Q04609 44-750, biotin label (EZ link Sulfo-NHS-Biotin), incubated with Alexa Fluor 647 Streptavidin) (assay: flow cytometry of CAR T cells with fluorescence labeled recombinant PSMA protein as probe).
T2 construct: This is the purified PSMA protein of m9 after labelling; also called fluorescence labeled recombinant PSMA protein; home-made fluorescent probe
Text: (A3). In vitro cytotoxicity of PSMA-CAR T cells. Human peripheral blood mononuclear cells (PBMC) were isolated from leukopak following a SOP published by Hanc (HIV/ADIS Network Coordination). T cells including CD4+ and CD8+ T cells were isolated from PBMC with human T cell isolation kit (Miltenyi Biotec). T cells were activated by Dvnabeads human T-Activator CD3/CD28 (ThermoFisher) for 24 hrs, then transduced with lentiviruses expressing PSMA-CARs. Transduced cells were expanded for 8 to 21 days in culture. Flow cytometry was performed to determine the percentage of T cells that express functional CAR. To prepare home-made fluorescent probe, we labeled purified PSMA protein with biotin using EZ link Sulfo-NHS-Biotin (ThermoFisher), then incubated with Alexa Fluor® 647 Streptavidin (BioLegend) to obtain the probe.
For IFNγ induction (FIGS. 14C, 14D)), 4LH-CAR, 7LH-CAR, 5LH-CAR appeared to be the strongest. […] We also tested the in vitro killing on PSMA-positive VCaP cells, PSMA-negative wild type PC3 cells, and PSMA-positive PC3-PSMA stable cells. As anticipated, the PSMA-CAR T cell cytotoxicity IFNγ induction were strictly PSMA-dependent. Moreover, using fluorescence labeled recombinant PSMA protein as probe, flow cytometry analysis was performed on non-transduced and 11 PSMA-CAR T cells.

T2 sequence (Q04609 44-750): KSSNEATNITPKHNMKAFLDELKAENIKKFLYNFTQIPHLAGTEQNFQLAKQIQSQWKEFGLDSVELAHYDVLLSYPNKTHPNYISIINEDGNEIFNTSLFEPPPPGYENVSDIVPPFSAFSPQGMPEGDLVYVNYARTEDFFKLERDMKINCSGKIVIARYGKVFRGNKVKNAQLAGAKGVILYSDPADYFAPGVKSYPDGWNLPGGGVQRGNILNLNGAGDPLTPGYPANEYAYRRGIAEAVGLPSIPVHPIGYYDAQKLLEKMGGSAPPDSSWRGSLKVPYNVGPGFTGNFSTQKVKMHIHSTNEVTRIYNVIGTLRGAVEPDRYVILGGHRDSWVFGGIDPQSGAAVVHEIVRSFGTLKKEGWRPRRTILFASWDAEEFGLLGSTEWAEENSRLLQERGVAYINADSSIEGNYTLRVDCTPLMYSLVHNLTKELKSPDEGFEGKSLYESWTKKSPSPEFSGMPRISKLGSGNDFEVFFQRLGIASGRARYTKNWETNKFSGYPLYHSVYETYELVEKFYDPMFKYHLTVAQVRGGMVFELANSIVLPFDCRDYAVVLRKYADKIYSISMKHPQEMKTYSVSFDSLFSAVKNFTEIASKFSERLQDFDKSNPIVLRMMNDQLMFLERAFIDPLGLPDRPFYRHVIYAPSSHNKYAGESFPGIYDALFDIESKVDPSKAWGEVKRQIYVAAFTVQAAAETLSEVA

| percentage of CAR T cells positive for PSMA binding | Binder |
| --- | --- |
| 16% | PSMA(8LH)-CAR, derived from antibody #1207 (VL-linker-VH) (other, Chimeric antigen receptor on transduced human T cells) IVLTQSPAIMSASPGVKVTMTCRASSSVDSSYLHWYQQKSGASPQVWIYSTSNLASGVPARFSGSGSGTSYSLTISSVEAEDAATYYCQQYSGYPLTFGGGTKLEIKRGGGGSGGGGSGGGGSVKLQQSGPGLVKPSQSLSLTCAVTGYSITSDYAWNWIRKFPGNKLEWMGYISYSGRTTYNPSLESRISITRDTSKNQFFLQLNSVTTEDTATYYCARCYYGSSSRWYGMDYWGRGTSVAVSSTTTPAPRPPTPAPTIASQPLSLRPEACRPAAGGAVHTRGLDFACDIYIWAPLAGTCGVLLLSLVITLYCKRGRKKLLYIFKQPFMRPVQTTQEEDGCSCRFPEEEEGGCELRVKFSRSADAPAYKQGQNQLYNELNLGRREEYDVLDKRRGRDPEMGGKPRRKNPQEGLYNELQKDKMAEAYSEIGMKGERRRGKGHDGLYQGLSTATKDTYDALHMQALPPR |
| 19.6% | PSMA(446)-CAR (CAR PMC 446, clone 1366, VH-linker-VL) (other, Chimeric antigen receptor on transduced human T cells; also called PMC446 CAR) VKLQESGPGLVAPSQSLSITCTVSGFSLTDYGVSWIRQPPGKGLEWLGVIWSDGNTYYNSPLKSRLSINKDNSKSQVFLKMNSLQTDDSAMYYCARHKVYTMDYWGQGTSVTVSSGGGGSGGGGSGGGGSTVLTQSPAIMSASPGEKVTMTCRASSSVSSSYLHWYQQKSSASPKLWIYRTSNLASGVPARFSGSGSGTSYSLTISSLEAEDAATYYCQQYSGYPLTFGAGTKLELKRTTTPAPRPPTPAPTIASQPLSLRPEACRPAAGGAVHTRGLDFACDIYIWAPLAGTCGVLLLSLVITLYCKRGRKKLLYIFKQPFMRPVQTTQEEDGCSCRFPEEEEGGCELRVKFSRSADAPAYKQGQNQLYNELNLGRREEYDVLDKRRGRDPEMGGKPRRKNPQEGLYNELQKDKMAEAYSEIGMKGERRRGKGHDGLYQGLSTATKDTYDALHMQALPPR |
| 17.8% | PSMA(6LH)-CAR, derived from antibody #1366 (VL-linker-VH) (other, Chimeric antigen receptor on transduced human T cells) TVLTQSPAIMSASPGEKVTMTCRASSSVSSSYLHWYQQKSSASPKLWIYRTSNLASGVPARFSGSGSGTSYSLTISSLEAEDAATYYCQQYSGYPLTFGAGTKLELKRGGGGSGGGGSGGGGSVKLQESGPGLVAPSQSLSITCTVSGFSLTDYGVSWIRQPPGKGLEWLGVIWSDGNTYYNSPLKSRLSINKDNSKSQVFLKMNSLQTDDSAMYYCARHKVYTMDYWGQGTSVTVSSTTTPAPRPPTPAPTIASQPLSLRPEACRPAAGGAVHTRGLDFACDIYIWAPLAGTCGVLLLSLVITLYCKRGRKKLLYIFKQPFMRPVQTTQEEDGCSCRFPEEEEGGCELRVKFSRSADAPAYKQGQNQLYNELNLGRREEYDVLDKRRGRDPEMGGKPRRKNPQEGLYNELQKDKMAEAYSEIGMKGERRRGKGHDGLYQGLSTATKDTYDALHMQALPPR |
| 2.23% | PSMA(448)-CAR (CAR PMC 448, clone 1207, VH-linker-VL) (other, Chimeric antigen receptor on transduced human T cells; also called PMC448 CAR) VKLQQSGPGLVKPSQSLSLTCAVTGYSITSDYAWNWIRKFPGNKLEWMGYISYSGRTTYNPSLESRISITRDTSKNQFFLQLNSVTTEDTATYYCARCYYGSSSRWYGMDYWGRGTSVAVSSGGGGSGGGGSGGGGSIVLTQSPAIMSASPGVKVTMTCRASSSVDSSYLHWYQQKSGASPQVWIYSTSNLASGVPARFSGSGSGTSYSLTISSVEAEDAATYYCQQYSGYPLTFGGGTKLEIKRTTTPAPRPPTPAPTIASQPLSLRPEACRPAAGGAVHTRGLDFACDIYIWAPLAGTCGVLLLSLVITLYCKRGRKKLLYIFKQPFMRPVQTTQEEDGCSCRFPEEEEGGCELRVKFSRSADAPAYKQGQNQLYNELNLGRREEYDVLDKRRGRDPEMGGKPRRKNPQEGLYNELQKDKMAEAYSEIGMKGERRRGKGHDGLYQGLSTATKDTYDALHMQALPPR |
| 47.1% | PSMA(444)-CAR (CAR PMC 444, clone 219, VH-linker-VL) (other, Chimeric antigen receptor (scFv-CD8a TM-4-1BB-CD3zeta) on transduced human T cells; also called PMC444 CAR) VQLQQSGPELEKPGASVKMSCKASGYSFTGYNVNWVRQNNGKSLEWIGNIDPLHGGTTYNQKFKAKATLTVDRSSSTAYLQLKNLTSEDSAVYYCARSSRFDYWGQGTTLTVSSGGGGSGGGGSGGGGSDIVMTQSHKFMSTSVGDRVNITCKASQDVGTAVAWYQQKPGQSPKLLIYWASTRHTGVPDRFTGSGSGTDFTLTISNVQSEDLADYFCHQFTSYPFTFGSGTSLEMKRTTTPAPRPPTPAPTIASQPLSLRPEACRPAAGGAVHTRGLDFACDIYIWAPLAGTCGVLLLSLVITLYCKRGRKKLLYIFKQPFMRPVQTTQEEDGCSCRFPEEEEGGCELRVKFSRSADAPAYKQGQNQLYNELNLGRREEYDVLDKRRGRDPEMGGKPRRKNPQEGLYNELQKDKMAEAYSEIGMKGERRRGKGHDGLYQGLSTATKDTYDALHMQALPPR |
| 3.08% | PSMA(447)-CAR (CAR PMC 447, clone 1352, VH-linker-VL) (other, Chimeric antigen receptor on transduced human T cells; also called PMC447 CAR) VKLQQSGPELEKPGASVKISCKASGYSFTGYNVNWVKQSNGKSLEWIGNIDPYHGGTTYNQKFEAKATLTVDKSSSTAYMQLKSLTSEDSAVYYCARSSRFDYWGQGTTLTVSSGGGGSGGGGSGGGGSDIVMTQSHKFMSTSVGDRVNITCKASQDVGTAVAWYQQKPGQSPKFLIYWASTRHTGVPDRFTGSGSGTDFTLTISNVQSEDLADYFCHQYTSYPFTFGSGTKLEMKRTTTPAPRPPTPAPTIASQPLSLRPEACRPAAGGAVHTRGLDFACDIYIWAPLAGTCGVLLLSLVITLYCKRGRKKLLYIFKQPFMRPVQTTQEEDGCSCRFPEEEEGGCELRVKFSRSADAPAYKQGQNQLYNELNLGRREEYDVLDKRRGRDPEMGGKPRRKNPQEGLYNELQKDKMAEAYSEIGMKGERRRGKGHDGLYQGLSTATKDTYDALHMQALPPR |
| 35.5% | PSMA(7LH)-CAR, derived from antibody #1352 (VL-linker-VH) (other, Chimeric antigen receptor on transduced human T cells) DIVMTQSHKFMSTSVGDRVNITCKASQDVGTAVAWYQQKPGQSPKFLIYWASTRHTGVPDRFTGSGSGTDFTLTISNVQSEDLADYFCHQYTSYPFTFGSGTKLEMKRGGGGSGGGGSGGGGSVKLQQSGPELEKPGASVKISCKASGYSFTGYNVNWVKQSNGKSLEWIGNIDPYHGGTTYNQKFEAKATLTVDKSSSTAYMQLKSLTSEDSAVYYCARSSRFDYWGQGTTLTVSSTTTPAPRPPTPAPTIASQPLSLRPEACRPAAGGAVHTRGLDFACDIYIWAPLAGTCGVLLLSLVITLYCKRGRKKLLYIFKQPFMRPVQTTQEEDGCSCRFPEEEEGGCELRVKFSRSADAPAYKQGQNQLYNELNLGRREEYDVLDKRRGRDPEMGGKPRRKNPQEGLYNELQKDKMAEAYSEIGMKGERRRGKGHDGLYQGLSTATKDTYDALHMQALPPR |
